Measurements as given in US6635751B1, “Isolated nucleic acids encoding activated and suppressive forms of ATF6” (HSP Research Institute, Inc., priority 1998, dated 2003).

What was measured:
human GRP78 promoter [1] = test: Overexpression of CREB-RP mutants with GRP78 promoter luciferase reporter in HeLa cells, ERSE-mediated transcription; assay type: cell-based; details: for ERSE-dependent transcriptional induction by the TM treatment: 2 μg/ml tunicamycin for 16 hours
Description: In a 96-well plate, the HeLa cells were transiently transformed with a reporter plasmid pGL-G78(−132) for expressing firefly luciferase gene under the control of a human GRP78 promoter together with pcDNA3.1 vector which has no inserts or with ATF6(1-373) expression plasmid or with CREB-RP(1-389) expression plasmid. Relative activity is indicated by the mean±standard deviation (bars), based on four independent experiments (each triplicate determinations).
In a 96-well plate, the HeLa cells were transiently transformed using a reporter plasmid pGL-G78(−132) for expressing firefly luciferase gene under the control of a human GRP78 promoter together with pcDNA3.1 vector which has no inserts or with CREB-RP(308-386) expression plasmid. Transfected cells were treated with (closed bars) or without 2 μg/ml tunicamycin (open bars) for 16 hours before luciferase activities were determined. Relative activity is indicated by the mean±standard deviation (bars), based on four independent experiments (each triplicate determinations).
In the figure, closed bars and open bars indicate the same as those in FIG. 31.
The CREB-RP(1-389) expression plasmid and a reporter plasmid resulting from ligation of the luciferase gene to downstream of the GRP78 promoter or mutant GRP78 promoter were introduced into the HeLa cells to evaluate the effect of CREB-RP(1-389) overexpression on ERSE-mediated transcriptional activation.
In the same manner as in Example 16, the effect of CREB-RP(308-386) overexpression on ERSE-mediated transcriptional activation was evaluated.
In addition, in the same manner as in Example 16, the effect of overexpression of CREB-RP(81-389) or CREB-RP(151-389) on ERSE-mediated transcriptional activation was evaluated. Here, each of CREB-RP(81-389) and CREB-RP(151-389) lacks transcription-activating domain.

human GRP78 promoter [2] = test: Overexpression of pCGN-ATF6 deletion mutants with reporter pGL3-G78(-132) in HeLa cells, ERSE-mediated transcription; assay type: cell-based; details: for transcription of the luciferase gene from the GRP78 promoter having ERSE: absence of endoplasmic reticulum stress (without TM)
Method: HeLa cells in a 24-well plate were transiently transfected with a reporter plasmid pGL-G78(−132) capable of expressing firefly luciferase gene under the control of human GRP78 promoter, together with pCGN vector alone (Vec) or each of ATF6 expression plasmids. Transfected cells were treated with (closed bars) or without (open bars) 2 μg/ml tunicamycin (TM) for 16 hours prior to measuring luciferase activity. The relative activities are indicated as the mean±standard deviations (bars) from four independent experiments (triplicate determinations).
Using HeLa cells co-transfected with the reporter plasmid pGL3-G78(−132) [see Example 1 (FIG. 6, line 2)] resulting from ligation of the firefly luciferase gene to downstream of the human GRP78 promoter ([−132 to +7], numbered on the basis of the translation initiation point taken as +1) and the expression plasmid for the ATF6 C-terminal deletion mutant of Example 10, the effects of each of the overexpressed C-terminal deletion mutants of ATF6 on ERSE-mediated transcriptional activation were evaluated.
Next, in the same manner as in Example 13, the effect of the overexpression of each ATF6 transcription-activating domain deletion mutant on ERSE-mediated transcriptional activation was evaluated by co-transfection with the reporter plasmid pGL3-G78(−132).

CREB-RP(308-386): CREB-RP amino acids 308th to 386th with N-terminal Met; only basic region and leucine zipper
ERSE-dependent transcriptional induction by the TM treatment (human GRP78 promoter [1]): strongly suppressed

B1: ATF6(151-330): ATF6 amino acids 151st to 330th, transcription-activating domain deletion mutant (protein, UniProt P18850 151-330, looked up, fragment)
chain: DKPVTGPRNKTENGLTPKKKIQVNSKPSIQPKPLLLPAAPKTQTNSSVPAKTIIIQTVPTLMPLAKQQPIISLQPAPTKGQTVLLSQPTVVQLQAPGVLPSAQPVLAVAGGVTQLPNHVVNVVPAPSANSPVNGKLSVTKPVLQSTMRNVGSDIAVLRRQQRMIKNRESACQSRKKKKEY
action on endogenous p50ATF6 in the nucleus (human GRP78 promoter [2]): act dominant-negatively

B2: CREB-RP(1-389): CREB-RP amino acids 1st to 389th, corresponding to p60CREB-RP, activated form (protein)
chain: AELMLLSEIADPTRFFTDNLLSPEDWDSTLYSGLDEVAEEQTQLFRCPEQDVPFDGSSLDVGMDVSPSEPPWELLPIFPDLQVKSEPSSPCSSSSLSSESSRLSTEPSSEALGVGEVLHVKTESLAPPLCLLGDDPTSSFETVQINVIPTSDDSSDVQTKIEPVSPCSSVNSEASLLSADSSSQAFIGEEVLEVKTESLSPSGCLLWDVPAPSLGAVQISMGPSLDGSSGKALPTRKPPLQPKPVVLTTVPMPSRAVPPSTTVLLQSLVQPPPVSPVVLIQGAIRVQPEGPAPSLPRPERKSIVPAPMPGNSCPPEVDAKLLKRQQRMIKNRESACQSRRKKKEYLQGLEARLQAVLADNQQLRRENAALRRRLEALLAENSELKLGSGNRKVVCIMVFLLFIAFNFGPVSISEPPSAPISPRMNKGEPQPRRHLLGFSEQEPVQGVEPLQGSSQGPKEPQPSPTDQPSFSNLTAFPGGAKELLLRDLDQLFLSSDCRHFNRTESLRLADELSGWVQRHQRGRRKIPQRAQERQKSQPRKKSPPVKAVPIQPPGPPERDSVGQLQLYRHPDRSQPAFLDAIDRREDTFYVVSFRRGHLLLPAISHNKTSRPKMSLVMPAMAPNETLSGRGAPGDYEEMMQIECEVMDTRVIHIKTSTVPPSLRKQPSPTPGNATGGPLPVSAASQAHQASHQPLYLNHP
ERSE-mediated transcription from GRP78 promoter on overexpression (human GRP78 promoter [1]; without ER stress, not observed with mutant ERSE): constitutively activated the transcription

B3: ATF6(402): HA-tagged ATF6 amino acids 1st to 402nd; retains the transmembrane domain (protein, UniProt P18850 1-402, looked up, fragment)
chain: MGEPAGVAGTMESPFSPGLFHRLDEDWDSALFAELGYFTDTDELQLEAANETYENNFDNLDFDLDLMPWESDIWDINNQICTVKDIKAEPQPLSPASSSYSVSSPRSVDSYSSTQHVPEELDLSSSSQMSPLSLYGENSNSLSSAEPLKEDKPVTGPRNKTENGLTPKKKIQVNSKPSIQPKPLLLPAAPKTQTNSSVPAKTIIIQTVPTLMPLAKQQPIISLQPAPTKGQTVLLSQPTVVQLQAPGVLPSAQPVLAVAGGVTQLPNHVVNVVPAPSANSPVNGKLSVTKPVLQSTMRNVGSDIAVLRRQQRMIKNRESACQSRKKKKEYMLGLEARLKAALSENEQLKKENGTLKRQLDEVVSENQRLKVPSPKRRVVCVMIVLAFIILNYGPMSMLEQDS
modifications: HA tag
notes: HA-tagged ATF6 amino acids 1st to 402nd; retains the transmembrane domain
transcription of the luciferase gene from the GRP78 promoter having ERSE (human GRP78 promoter [2]): constitutively enhanced

B4: ATF6(151-366): ATF6 amino acids 151st to 366th, transcription-activating domain deletion mutant (protein, UniProt P18850 151-366, looked up, fragment)
chain: DKPVTGPRNKTENGLTPKKKIQVNSKPSIQPKPLLLPAAPKTQTNSSVPAKTIIIQTVPTLMPLAKQQPIISLQPAPTKGQTVLLSQPTVVQLQAPGVLPSAQPVLAVAGGVTQLPNHVVNVVPAPSANSPVNGKLSVTKPVLQSTMRNVGSDIAVLRRQQRMIKNRESACQSRKKKKEYMLGLEARLKAALSENEQLKKENGTLKRQLDEVVSEN
action on endogenous p50ATF6 in the nucleus (human GRP78 promoter [2]): act dominant-negatively

B5: CREB-RP(81-389): CREB-RP deletion mutant lacking transcription-activating domain (protein, UniProt Q99941 81-389, looked up, fragment)
chain: IFPDLQVKSEPSSPCSSSSLSSESSRLSTEPSSEALGVGEVLHVKTESLAPPLCLLGDDPTSSFETVQINVIPTSDDSSDVQTKIEPVSPCSSVNSEASLLSADSSSQAFIGEEVLEVKTESLSPSGCLLWDVPAPSLGAVQISMGPSLDGSSGKALPTRKPPLQPKPVVLTTVPMPSRAVPPSTTVLLQSLVQPPPVSPVVLIQGAIRVQPEGPAPSLPRPERKSIVPAPMPGNSCPPEVDAKLLKRQQRMIKNRESACQSRRKKKEYLQGLEARLQAVLADNQQLRRENAALRRRLEALLAENSELK
ERSE-dependent transcriptional induction by the TM treatment (human GRP78 promoter [1]): strongly suppressed

B6: ATF6(151-373): ATF6 amino acids 151st to 373rd, transcription-activating domain deletion mutant (protein, UniProt P18850 151-373, looked up, fragment)
chain: DKPVTGPRNKTENGLTPKKKIQVNSKPSIQPKPLLLPAAPKTQTNSSVPAKTIIIQTVPTLMPLAKQQPIISLQPAPTKGQTVLLSQPTVVQLQAPGVLPSAQPVLAVAGGVTQLPNHVVNVVPAPSANSPVNGKLSVTKPVLQSTMRNVGSDIAVLRRQQRMIKNRESACQSRKKKKEYMLGLEARLKAALSENEQLKKENGTLKRQLDEVVSENQRLKVPS
action on endogenous p50ATF6 in the nucleus (human GRP78 promoter [2]): act dominant-negatively

B7: ATF(670): full-length ATF6 with HA epitope at N-terminus, expressed from pCGN-ATF6(670) (protein, UniProt P18850 1-670, looked up)
chain: MGEPAGVAGTMESPFSPGLFHRLDEDWDSALFAELGYFTDTDELQLEAANETYENNFDNLDFDLDLMPWESDIWDINNQICTVKDIKAEPQPLSPASSSYSVSSPRSVDSYSSTQHVPEELDLSSSSQMSPLSLYGENSNSLSSAEPLKEDKPVTGPRNKTENGLTPKKKIQVNSKPSIQPKPLLLPAAPKTQTNSSVPAKTIIIQTVPTLMPLAKQQPIISLQPAPTKGQTVLLSQPTVVQLQAPGVLPSAQPVLAVAGGVTQLPNHVVNVVPAPSANSPVNGKLSVTKPVLQSTMRNVGSDIAVLRRQQRMIKNRESACQSRKKKKEYMLGLEARLKAALSENEQLKKENGTLKRQLDEVVSENQRLKVPSPKRRVVCVMIVLAFIILNYGPMSMLEQDSRRMNPSVSPANQRRHLLGFSAKEAQDTSDGIIQKNSYRYDHSVSNDKALMVLTEEPLLYIPPPPCQPLINTTESLRLNHELRGWVHRHEVERTKSRRMTNNQQKTRILQGALEQGSNSQLMAVQYTETTSSISRNSGSELQVYYASPRSYQDFFEAIRRRGDTFYVVSFRRDHLLLPATTHNKTTRPKMSIVLPAININENVINGQDYEVMMQIDCQVMDTRILHIKSSSVPPYLRDQQRNQTNTFFGSPPAATEATHVVSTIPESLQ
modifications: full-length N-terminal HA tag
transcription of the luciferase gene from the GRP78 promoter having ERSE (human GRP78 promoter [2]): constitutively activated

B8: ATF6(330): HA-tagged ATF6 amino acids 1st to 330th; lacks the leucine zipper region (protein, UniProt P18850 1-330, looked up, fragment)
chain: MGEPAGVAGTMESPFSPGLFHRLDEDWDSALFAELGYFTDTDELQLEAANETYENNFDNLDFDLDLMPWESDIWDINNQICTVKDIKAEPQPLSPASSSYSVSSPRSVDSYSSTQHVPEELDLSSSSQMSPLSLYGENSNSLSSAEPLKEDKPVTGPRNKTENGLTPKKKIQVNSKPSIQPKPLLLPAAPKTQTNSSVPAKTIIIQTVPTLMPLAKQQPIISLQPAPTKGQTVLLSQPTVVQLQAPGVLPSAQPVLAVAGGVTQLPNHVVNVVPAPSANSPVNGKLSVTKPVLQSTMRNVGSDIAVLRRQQRMIKNRESACQSRKKKKEY
modifications: HA tag
notes: HA-tagged ATF6 amino acids 1st to 330th; lacks the leucine zipper region
activity compared with ATF6(373) or ATF(366) (human GRP78 promoter [2]; nearly the same expression level): markedly lower activity
